Settings in all cases: both partners purified
Test [1] deals with T1, Bovine calmodulin (bovine, UniProt P62157 1-149).
T1 construct: calmodulin, bovine, purchased from Sigma; the methods say bovine calmodulin purchased from Sigma; also called CaM; recombinant calmodulin (CaM); source: bought: Sigma
Put plainly: SPR; XIP peptide immobilised on CM5 chip (about 700 RU, carbodiimide chemistry); CaM 10, 25, 50, 100, 250 nM flowed over; Biacore 3000; running buffer NaCl 150 mM, HEPES 10 mM, CaCl2 0.1 mM, pH 7.4; 5 µl/min for 2 minutes; 1:1 Langmuir binding model. For orientation: Surface plasmon resonance follows binding to a sensor surface in real time, without labels.

Test [2] addresses T2, recombinant rat OMP (olfactory marker protein) (rat, UniProt P08523 1-163).
T2 construct: olfactory marker protein, rat, recombinant
T2 sequence (looked up): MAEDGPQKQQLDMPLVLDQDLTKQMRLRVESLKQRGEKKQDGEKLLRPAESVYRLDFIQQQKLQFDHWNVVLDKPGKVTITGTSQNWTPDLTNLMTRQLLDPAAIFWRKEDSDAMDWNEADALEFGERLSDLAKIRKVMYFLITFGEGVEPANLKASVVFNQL
Put plainly: SPR; data not shown; peptide immobilised on CM5 chip; OMP flowed over (0-500 nM by the methods), running buffer in the absence or presence of 0.1 mM Ca2+; interaction Ca2+-independent.

Test [3] addresses T1, Bovine calmodulin. Put plainly: SPR; Bex1 (50-75) peptide immobilised on CM5 chip; CaM 31.25, 62.5, 125, 250, 500 nM flowed over; running buffer with 0.1 mM Ca2+; steady-state analysis of equilibrium response, nonlinear 1:1 binding isotherm.

As usually defined, the Kd is the free concentration of one partner at which half of the binding sites on the other are occupied at equilibrium, for simple one-to-one binding.

B1: XIP peptide (NCX1 251-271) (peptide)
peptide: RRLLFYKYVYKRYRAGKQRGM
notes: Immobilised on a CM5 chip by carbodiimide chemistry; also called XIP regulatory-peptide of NCX; source: synthetic peptide, HPLC purified
Turning to B1, the dissociation constant (Kd) came out at 20 ± 6 nM in test [1] and 700 nM in test [2].

B2: CaM binding peptide of Bex1 (Bex1 50-75) (peptide)
peptide: RGGRRRFRVRQPIAHYRWDLMQRVGE
notes: Immobilised on a CM5 chip by carbodiimide chemistry; also called Bex1 peptide; Bex1 (50–75) peptide; source: synthetic peptide, HPLC purified
Turning to B2, the Kd in test [2] amounted to 90000 ± 12000 nM; in test [3], 280 nM.
